Paper PMC9499402, “Crystal Structure of an Archaeal Tyrosyl-tRNA Synthetase Bound to Photocaged L-Tyrosine and Its Potential Application to Time-Resolved X-ray Crystallography” (International Journal of Molecular Sciences, 2022)

Biological target: the molecule itself
Test: crystal structure; oNBTyrRS (10 mg/mL) co-crystallised with oNBTyr (1.4 mg/mL), sitting-drop vapor diffusion at 20 °C; reservoir 20% PEG300, 3% PEG8000, 10% glycerol, 100 mM Tris-HCl pH 8.0; dimer in the asymmetric unit; 2.79 Å

B1: oNBTyrRS, O-(2-nitrobenzyl)-L-tyrosine-specific variant of Methanocaldococcus jannaschii tyrosyl-tRNA synthetase (Y32G, L65G, F108E, D158S, L162E, D286R) (enzyme, UniProt Q57834 1-306, looked up)
chain: MDEFEMIKRNTSEIISEEELREVLKKDEKSAGIGFEPSGKIHLGHYLQIKKMIDLQNAGFDIIIGLADLHAYLNQKGELDEIRKIGDYNKKVFEAMGLKAKYVYGSEEQLDKDYTLNVYRLALKTTLKRARRSMELIAREDENPKVAEVIYPIMQVNSIHYEGVDVAVGGMEQRKIHMLARELLPKKVVCIHNPVLTGLDGEGKMSSSKGNFIAVDDSPEEIRAKIKKAYCPAGVVEGNPIMEIAKYFLEYPLTIKRPEKFGGDLTVNSYEELESLFKNKELHPMRLKNAVAEELIKILEPIRKRL
notes: Methanocaldococcus jannaschii tyrosyl-tRNA synthetase (MjTyrRS), UniProt Q57834, with six substitutions; all 306 amino acid residues were modelled in the crystal structure; Residues of the TEV site may remain after cleavage; also called oNBTyr-tRNA synthetase; M. jannaschii oNBTyrRS; source: E. coli Rosetta2 (DE3), purified (HisTrap, TEV cleavage, HisTrap flow-through, desalting, HiTrap Q); not …
  stoichiometry N: 2
